Experimental data: patent US20170189513A1

Target: HLA-A*24 (human)
Assay: UV-ligand exchange, b2m ELISA

Binder	peptide exchange yield [%]
PYRLIFEKF [… (SEQ ID No 281)]	20 to 49
YYKSTSSAF [… (SEQ ID No 218)]	50 to 75
TYKDEGNDYF [… (SEQ ID No 209)]	50 to 75
QYLGQIQHI [… (SEQ ID No 268)]	50 to 75
LYITEPKTI [… (SEQ ID No 287)]	50 to 75
TFSVSSHLF [… (SEQ ID No 222)]	50 to 75
RYAEEVGIF [… (SEQ ID No 199)]	50 to 75
TYELRYFQI [… (SEQ ID No 204)]	> 75
YYGPSLFLL [… (SEQ ID No 200)]	50 to 75
VYQGHTALL [… (SEQ ID No 277)]	> 75
AYVVFVSTL [… (SEQ ID No 207)]	20 to 49
HYPPVQVLF [… (SEQ ID No 285)]	50 to 75
VYWDSAGAAHF [… (SEQ ID No 202)]	> 75
YFIDSTNLKTHF [… (SEQ ID No 269)]	50 to 75
IYATEAHVF [… (SEQ ID No 201)]	50 to 75
NYYEVHKELF [… (SEQ ID No 270)]	50 to 75
